Measurements from EP4239334A1 (Consorcio Centro de Investigación Biomédica en Red (CIBER), dated 2023).
Where a chain is given by its changes, count along the chain named. In names and notes the source's numbering stands. Blank lines part the entries; values can stand above or below the binder they belong to.

What was measured:
[1] = target: T1, NF-κB p50 subunit (endogenous, HEK-293T cells) (UniProt P19838 1-433, limits assumed); assay: PD and Co-IP
T1 construct: Endogenous protein co-precipitated with HA-IκBα from transfected HEK-293T cells; also called p50 NF-κB
T1 sequence (looked up): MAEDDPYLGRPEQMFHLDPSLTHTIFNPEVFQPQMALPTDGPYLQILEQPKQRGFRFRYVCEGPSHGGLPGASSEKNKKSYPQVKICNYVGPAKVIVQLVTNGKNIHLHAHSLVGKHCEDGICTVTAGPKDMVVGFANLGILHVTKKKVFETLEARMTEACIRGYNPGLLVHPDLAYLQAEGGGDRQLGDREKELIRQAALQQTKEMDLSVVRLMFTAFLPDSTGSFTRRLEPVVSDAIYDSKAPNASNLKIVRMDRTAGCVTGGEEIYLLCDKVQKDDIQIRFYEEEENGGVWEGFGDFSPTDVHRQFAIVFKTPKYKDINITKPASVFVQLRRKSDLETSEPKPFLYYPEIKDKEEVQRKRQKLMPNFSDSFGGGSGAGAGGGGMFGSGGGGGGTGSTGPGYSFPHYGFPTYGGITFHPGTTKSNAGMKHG

[2] = target: T2, NF-κB p65 subunit (endogenous, HEK-293T cells) (UniProt Q04206 1-551); assay: PD and Co-IP
T2 construct: Endogenous protein co-precipitated with HA-IκBα from transfected HEK-293T cells; also called p65/NF-κB; p65/RelA
T2 sequence (Q04206 whole entry): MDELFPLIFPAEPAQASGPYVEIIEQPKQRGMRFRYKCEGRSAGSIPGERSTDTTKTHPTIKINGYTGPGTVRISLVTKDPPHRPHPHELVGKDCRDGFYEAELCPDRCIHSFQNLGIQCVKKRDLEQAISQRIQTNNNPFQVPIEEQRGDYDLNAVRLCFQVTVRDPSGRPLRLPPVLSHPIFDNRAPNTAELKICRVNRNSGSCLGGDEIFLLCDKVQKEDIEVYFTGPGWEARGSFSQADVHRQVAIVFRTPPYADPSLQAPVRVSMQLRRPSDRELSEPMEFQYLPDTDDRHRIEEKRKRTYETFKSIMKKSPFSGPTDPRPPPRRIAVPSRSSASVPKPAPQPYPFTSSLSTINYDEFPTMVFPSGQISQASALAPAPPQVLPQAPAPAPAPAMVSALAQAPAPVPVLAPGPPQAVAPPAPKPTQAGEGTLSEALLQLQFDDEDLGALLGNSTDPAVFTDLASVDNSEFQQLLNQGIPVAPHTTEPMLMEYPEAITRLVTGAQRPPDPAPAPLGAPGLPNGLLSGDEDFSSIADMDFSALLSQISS

[3] = target: T1, NF-κB p50 subunit (endogenous, HEK-293T …); assay: Co-IP of single point mutants, WB
[4] = target: T2, NF-κB p65 subunit (endogenous, HEK-293T …); assay: Co-IP of single point mutants, WB
[5] = target: T1, NF-κB p50 subunit (endogenous, HEK-293T …); assay: Co-IP from transfected HEK-293T cells, WB
[6] = target: T2, NF-κB p65 subunit (endogenous, HEK-293T …); assay: Co-IP from transfected HEK-293T cells, WB

B1: IκBα HEE84-86AAA / SOF^NF-κB (SEQ ID NO: 1) (other)
chain: MFQAAERPQEWAMEGPRDGLKKERLLDDRHDSGLDSMKDEEYEQMVKELQEIRLEPQEVPRGSEPWKQQLTEDGDSFLHLAIIAAAKALTMEVIRQVKGDLAFLNFQNNLQQTPLHLAVITNQPEIAEALLGAGCDPELRDFRGNTPLHLACEQGCLASVGVLTQSCTTPHLHSILKATNYNGHTCLHLASIHGYLGIVELLVSLGADVNAQEPCNGRTALHLAVDLQNPDLVSLLLKCGADVNRVTYQGYSPYQLTWGRPSTRIQQQLGQLTLENLQMLPESEDEESYDTESEFTEFTEDELPYDDCVFGGQRLTL
notes: Compose mutant of IκBα, expressed in HEK-293T cells; also called IκBα SOF^NF-κB; H84, E85, E86 to A; not shown: HA tag
binding result [1]: binds
binding result [2]: binds

B2: IκBα N108A / SOF^PRC2 (SEQ ID NO: 3) (other)
chain: B1 chain with A84H, A85E, A86E, N108A
notes: Single point mutant of IκBα; also called IκBα SOF^PRC2 mutant N108A; IkBa N108A; not shown: HA tag
binding result [3]: no binding
binding result [4]: no binding

Next, values leading:

binding result [3]: no binding
binding result [4]: no binding
B3: IκBα D75A / SOF^PRC2 (SEQ ID NO: 2) (other)
chain: B1 chain with D75A, A84H, A85E, A86E
notes: Single point mutant of IκBα; also called IκBα SOF^PRC2; IkBa D75A; not shown: HA tag

binding result [5]: no binding
binding result [6]: no binding
B4: IκBα compose mutant H84, E85, E86, N108, Q112 to A (other)
chain: B1 chain with N108A, Q112A
notes: not shown: HA tag
